Assays:
weeds = details: EP 0030424; cited from earlier work
[1] = Conversion of PPO to L-glufosinate with lysine as amine donor; assay type: biochemical; details: over 20 hours; 0.4 mg/mL gabT, 25 mM PPO, 75 mM L-Lysine, pH 8.0, 30° C.
Method: Lysine can be used as an amine donor for conversion of PPO to L-glufosinate with the use of an appropriate TA. PPO was converted to L-glufosinate in a reaction with the following components: • 0.4 mg/mL gabT (purified as in Example 3) • 25 mM PPO (pHed to 8 w/NaOH) • 0.2 mM pyridoxal phosphate • 75 mM L-Lysine dihydrochloride (pHed to 8 w/NaOH) • 100 mM Kphos buffer pH 8.0
The reaction was incubated at 30° C. for 20 hours with shaking (250 rpm). L-glufosinate was formed at a rate of 0.4 mM/hr over the 20 hours.

[2] = Conversion of PPO to L-glufosinate with isopropylamine as amine donor; assay type: biochemical; details: 0.25 mg/mL TA, 25 mM PPO, 250 mM isopropylamine, pH 8.0, 25 to 30° C.
Method: Isopropylamine can be used as an amine donor for conversion of PPO to L-glufosinate with the use of an appropriate TA. PPO was converted to L-glufosinate in a reaction with the following components: • 0.25 mg/mL TA encoded by SEQ ID NO: 1 • 25 mM PPO • 0.2 mM pyridoxal phosphate • 250 mM isopropylamine (pHed to 8 w/H3PO4) • 100 mM Kphos buffer pH 8.0
The reaction was incubated at 25 to 30° C. for 30 hours with gentle shaking (250 rpm). At 0 hours, the amount of L-glufosinate as measured by HPLC was 0 mM, at 20 hours it was 14 mM, and at 30 hours it was 18 mM.

Molecule: CP(=O)(O)CCC(=O)C(=O)O [PPO, 2-oxo-4-(hydroxy(methyl)phosphinoyl)butyric acid]
- herbicidal activity (weeds): can contribute herbicidal activity

B1: gabT: gabT transaminase from Escherichia coli (UniProt P22256; SEQ ID NO: 3) (protein, listed as Escherichia coli)
chain: MNSNKELMQRRSQAIPRGVGQIHPIFADRAENCRVWDVEGREYLDFAGGIAVLNTGHLHPKVVAAVEAQLKKLSHTCFQVLAYEPYLELCEIMNQKVPGDFAKKTLLVTTGSEAVENAVKIARAATKRSGTIAFSGAYHGRTHYTLALTGKVNPYSAGMGLMPGHVYRALYPCPLHGISEDDAIASIHRIFKNDAAPEDIAAIVIEPVQGEGGFYASSPAFMQRLRALCDEHGIMLIADEVQSGAGRTGTLFAMEQMGVAPDLTTFAKSIAGGFPLAGVTGRAEVMDAVAPGGLGGTYAGNPIACVAALEVLKVFEQENLLQKANDLGQKLKDGLLAIAEKHPEIGDVRGLGAMIAIELFEDGDHNKPDAKLTAEIVARARDKGLILLSCGPYYNVLRILVPLTIEDAQIRQGLEIISQCFDEAKQ
- rate of L-glufosinate formation [1]: 0.4 mM/h

B2: TA encoded by SEQ ID NO: 1: transaminase with the amino acid sequence of SEQ ID NO: 1 (protein, listed as Sinorhizobium arboris)
chain: MNIAAQSWERREATSFFHTFTDLPSLKTDGPVIIDHGEGPYIIDTVGRRYFEGNSGLWNMTLGFSERRLSDAALKQYQEFPGYHTFFGRNSKPTVELAERMLKLAPAPMSRVFFTNSGSEANESIVKLLWMMWAAEGRPERRKLLTRKNAYHGATVMASALTGKDYVKAFGLPGPEIVTLDCPHAWRFALPGEGDDEFAARLAANLETRILQEGPETIAGMFAEPVMGAGGVIVPPATYFAKIQPVLQRYGIPLIADEVICGFGRTGSLWGTLAVGQQPDIIVASKSMSAGYFPMGAVMLSADIDKRATAASEVWEEFPHGFTTGGHPVGCAISLEAIRIITEEGVFENVKSVSETFQSGLRALADHPMIGEARGMGLMGALETVADKKTKQSFSGDLRIGERISKEARDRGFIIRPLGSSVVLAPPFISTHGQIEELLAVLKEVLDVVYGTVKGEVA
modifications: Sinorhizobium arboris sp. nov.
- amount of L-glufosinate formed (HPLC) ([2]; at 20 hours): 14 mM
- amount of L-glufosinate formed (HPLC) ([2]; at 30 hours): 18 mM
